Patent publication US20160137696A1 (Bristol-Myers Squibb, published 2016)
Starred links: 1 amine or outer side, 2 acyl side, 3 side chain; linkers in the order of their positions; H or OH if unused. Positions of bridges follow the written chain, without caps; N, C: chain ends. Non-standard residues stand in square brackets, D forms with d. Groups on a side chain read outwards from the residue. Primed or numbered codes have the meaning given here. No end group written: not given here. *: point of attachment. PEG8′ = PEG8 unit (23-azido-3,6,9,12,15,18,21-heptaoxatricosyl, i.e. an eight-unit PEG spacer) linking the triazole to vitamin E succinate; Pra′ = propargylglycine (built in as LPH), clicked to a 1-substituted triazol-4-yl-alanine, O=C([C@H](Cc1cn([*:3])nn1)N[*:1])[*:2]; X1 = (S)‑3‑carboxy‑3‑(15-carboxypentadecanoylamino)propyl, O=C(O)CCCCCCCCCCCCCCC(=O)N[C@@H](CC*)C(=O)O; Pra″ = its azide, alkyne or alkene has reacted where a group follows in round brackets; X2 = (S)‑3‑carboxy‑3‑palmitamidopropyl, CCCCCCCCCCCCCCCC(=O)N[C@@H](CC*)C(=O)O; Phe(4-OMe)″ = p-methoxyphenylalanine, COc1ccc(C[C@H](N[*:1])C(=O)[*:2])cc1; Pra(3) = propargylglycine, clicked to an azide to give a triazolyl-alanine; triazole = 1,2,3-triazole formed by click of the Pra alkyne with the azide; Trp(1-CH2CO) = O=C([C@H](Cc1cn(CC(=O)[*:3])c2ccccc12)N[*:1])[*:2]; Tyr(Me) = O-methyl-tyrosine, COc1ccc(C[C@H](N[*:1])C(=O)[*:2])cc1; C18 diacid = O=C(O)CCCCCCCCCCCCCCCCC(=O)*; Phe(4-F) = N[C@@H](Cc1ccc(F)cc1)C(=O)O; γGlu = O=C(O)[C@H](CCC(=O)[*:2])N[*:1]; Hyp = O=C(O)[C@@H]1C[C@@H](O)CN1; NMeF = CN[C@@H](Cc1ccccc1)C(=O)O; F3Phe = trifluoro-phenylalanine; dHyp = O=C(O)[C@H]1C[C@H](O)CN1; NMeNle = CCCC[C@H](NC)C(=O)O; Suc = O=C(CCC(=O)[*:2])[*:1]; triazole″ = not defined here; Pip = O=C(O)[C@@H]1CCCCN1; NMeA = CN[C@@H](C)C(=O)O; Pra = C#CC[C@H](N)C(=O)O; Dab = NCC[C@H](N)C(=O)O; Dap = NC[C@H](N)C(=O)O

biological target: T1, Recombinant Human PD-L1-TVMV-His (human, UniProt Q9NZQ7 19-239); experiment: HTRF vs PD-1-Ig; B = IC50 0.01-0.099 µM
T1 construct: expressed in HEK293T cells; also called PD-L1-His; hPD-L1(19-239)-TVMV-His
T1 sequence (Q9NZQ7 other isoform, or with tags, fused parts or gaps limits assumed): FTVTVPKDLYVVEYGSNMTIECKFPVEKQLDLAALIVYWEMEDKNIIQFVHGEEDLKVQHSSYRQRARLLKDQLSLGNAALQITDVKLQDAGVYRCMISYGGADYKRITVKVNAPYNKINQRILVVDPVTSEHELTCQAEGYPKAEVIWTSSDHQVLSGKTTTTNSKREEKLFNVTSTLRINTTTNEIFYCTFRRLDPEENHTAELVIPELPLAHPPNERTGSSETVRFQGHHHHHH
Protocol: Homogenous Time-Resolved Fluorescence (HTRF) Assays of Binding of Soluble PD-1 to Soluble PD-L1. Soluble PD-1 and soluble PD-L1 refers to proteins with carboxyl-end truncations that remove the transmembrane-spanning regions and are fused to heterologous sequences, specifically the Fc portion of the human immunoglobuling G sequence (Ig) or the hexahistidine epitope tag (His). All binding studies were performed in an HTRF assay buffer consisting of dPBS supplemented with 0.1% (w/v) bovine serum albumin and 0.05% (v/v) Tween-20. For the PD-1-Ig/PD-L1-His binding assay, inhibitors were pre-incubated with PD-L1-His (10 nM final) for 15 m in 4 μl of assay buffer, followed by addition of PD-1-Ig (20 nM final) in 1 μl of assay buffer and further incubation for 15 m. PD-L1 fusion proteins from either human, cynomologous macaques, mouse, or other species were used. HTRF detection was achieved using europium crypate-labeled anti-Ig monoclonal antibody (1 nM final) and allophycocyanin (APC) labeled anti-His monoclonal antibody (20 nM final). Antibodies were diluted in HTRF detection buffer and 5 μl was dispensed on top of binding reaction. The reaction was allowed to equilibrate for 30 minutes and signal (665 nm/620 nm ratio) was obtained using an EnVision fluorometer. Additional binding assays were established between PD-I-Ig/PD-L2-His (20 and 5 nM, respectively), CD80-His/PD-L1-Ig (100 and 10 nM, respectively) and CD80-His/CTLA4-Ig (10 and 5 nM, respectively). Binding/competition studies between biotinylated Compound No. 71 and human PD-L1-His were performed as follows. Macrocyclic peptide inhibitors were pre-incubated with PD-L1-His (10 nM final) for 60 minutes in 4 μl of assay buffer followed by addition of biotinylated Compound No. 71 (0.5 nM final) in 1 μl of assay buffer. Binding was allowed to equilibrate for 30 minutes followed by addition of europium crypated labeled Streptavidin (2.5 pM final) and APC-labeled anti-His (20 nM final) in 5 μl of HTRF buffer. The reaction was allowed to equilibrate for 30 m and signal (665 nm/620 nm ratio) was obtained using an EnVision fluorometer.

Binder | IC50 [nM]
YADPHKPWKWXXECGX (as m115 (INT 1400J); Pra triazole-linked to vitamin E succinate 5-azidopentylamide) [Example 14082] | 10 to 99
{CH2CO}-Y[NMeA]NP[Dap]L[Hyp]WS[Trp(1-CH2CO)][NMeNle][NMeNle]LCG[Pra] (thioether N-14, also called Intermediate 1300X) [INT-1300X] | 10 to 99
{CH2CO}-Y[NMeA]NP[Dap]L[Hyp]WS[Trp(1-CH2CO)][NMeNle][NMeNle]ECG[Pra′]([triazole-X1]) (thioether N-14) [Example 14070] | 10 to 99
{CH2CO}-[Phe(4-OMe)″][Pip]NPHL[Hyp]W[Dab][Trp(1-CH2CO)][NMeNle][NMeNle]LCG[Dab]([γGlu-C18 diacid]) (thioether N-14 (inferred)) [Example 13151] | 10 to 99
{CH2CO}-Y[NMeA]DPHK[Hyp]WKW[NMeNle][NMeNle]ECG[Pra″]([triazole″-PEG8′-Suc-vitamin E])G (thioether N-14; reading uncertain) [Example 14052] | 10 to 99
{CH2CO}-Y[Pip]NP[Dap]L[Hyp]W[Dab][Trp(1-CH2CO)][NMeNle][NMeNle]LCG[Dab]([γGlu-C18 diacid]) (thioether N-14 (inferred)) [Example 13149] | 10 to 99
{CH2CO}-F[Pip]DP[Dap]L[Hyp]W[Dab]W[NMeNle][NMeNle]LCGD (thioether N-14; not fully specified (residues 1, 10, 16, C-terminus); also: residue 1 written Tyr(4-F)) [Example 14124] | 10 to 99
{CH2CO}-[Tyr(Me)][Pip]DP[Dap]Q[Hyp]W[Dab][Trp(1-CH2CO)][NMeNle][NMeNle]ECG[Pra″]([triazole-(S)‑18‑((3-azido-1-carboxypropyl)amino)‑18‑oxooctadecanoic acid]) (thioether N-14) [Example 14121] | 10 to 99
YADPHKPWKWXXECGX (as m102 (INT 1300Y); Pra triazole-linked to vitamin E succinate 5-azidopentylamide) [Example 14085] | 10 to 99
{CH2CO}-Y[NMeA]DPHK[Hyp]WKW[NMeNle][NMeNle]ECG[Pra(3)]([triazole″-X2])D (thioether N-14; reading uncertain) [Example 14061] | 10 to 99
{CH2CO}-Y[NMeA]DPHK[Hyp]WKW[NMeNle][NMeNle]ECG[Pra′]([triazole-X1])D (thioether N-14) [Example 14065] | 10 to 99
YADPHKPWKWXXECGXD (as m110 (INT 1400E); Pra triazole-linked to vitamin E succinate 5-azidopentylamide) [Example 14086] | 10 to 99
{CH2CO}-Y[NMeA]DPHK[Hyp]WK[Trp(1-CH2CO)][NMeNle][NMeNle]ECG[Pra′]([triazole-X1])D (thioether N-14) [Example 14071] | 10 to 99
{CH2CO}-[Phe(4-F)][Pip]DP[Dap]L[Hyp]W[Dab][Trp(1-CH2CO)][NMeNle][NMeNle]LCG[Pra″]([triazole-(S)‑18‑((3-azido-1-carboxypropyl)amino)‑18‑oxooctadecanoic acid]) (thioether N-14; also: residue 1 written Tyr(4-F)) [Example 14122] | 10 to 99

The next lines start with the values.

IC50 [nM] | Binder
10 to 99 | {CH2CO}-Y[NMeA]DP[Dap]L[Hyp]W[Dab][Trp(1-CH2CO)][NMeNle][NMeNle]ECG[Pra]-OH (thioether N-14; SMILES C#CC[C@H](NC(=O)CNC(=O)[C@@H]1CSCC(=O)N[C@@H](Cc2ccc(O)cc2)C(=O)N(C)[C@@H](C)C(=O)N[C@@H](CC(=O)O)C(=O)N2CCC[C@H]2C(=O)N[C@@H](CN)C(=O)N[C@@H](CC(C)C)C(=O)N2C[C@H](O)C[C@H]2C(=O)N[C@@H](Cc2c[nH]c3ccccc23)C(=O)N[C@@H](CCN)C(=O)N[C@@H](Cc2cn(CC(=O)O)c3ccccc23)C(=O)N(C)[C@@H](CCCC)C(=O)N(C)[C@@H](CCCC)C(=O)N[C@@H](CCC(=O)O)C(=O)N1)C(=O)O) [INT-130AE]
10 to 99 | {CH2CO}-Y[NMeA]NP[Dap]L[Hyp]WS[Trp(1-CH2CO)][NMeNle][NMeNle]ECG[Pra] (thioether N-14; not fully specified (C-terminus); printed as ClAc-Tyr-mAla-Asn-Pro-Dap-Leu-Hyp-Trp-Ser-Trp(1-carboxymethyl)-mNle-mNle-E-Cys-Gly-[(S)-propargylglycine], cyclised ClAc-Cys, also called Intermediate 1400I) [INT-1400I]
10 to 99 | {CH2CO}-Y[NMeA]NP[Dap]L[Hyp]W[Dab][Trp(1-CH2CO)][NMeNle][NMeNle]LCG[Pra]-OH (thioether N-14; SMILES C#CC[C@H](NC(=O)CNC(=O)[C@@H]1CSCC(=O)N[C@@H](Cc2ccc(O)cc2)C(=O)N(C)[C@@H](C)C(=O)N[C@@H](CC(N)=O)C(=O)N2CCC[C@H]2C(=O)N[C@@H](CN)C(=O)N[C@@H](CC(C)C)C(=O)N2C[C@H](O)C[C@H]2C(=O)N[C@@H](Cc2c[nH]c3ccccc23)C(=O)N[C@@H](CCN)C(=O)N[C@@H](Cc2cn(CC(=O)O)c3ccccc23)C(=O)N(C)[C@@H](CCCC)C(=O)N(C)[C@@H](CCCC)C(=O)N[C@@H](CC(C)C)C(=O)N1)C(=O)O) [INT-1300V]
10 to 99 | {CH2CO}-[F3Phe][NMeF][NMeNle][dHyp]DV[NMeF]D[dP]WYLCG[Pra] (thioether N-13; not fully specified (C-terminus); printed as ClAc-F3Phe-mPhe-mNle-dHyp-Asp-Val-mPhe-Asp-dPro-Trp-Tyr-Leu-Cys-Gly-[(S)-propargylglycine], also called Intermediate 1400L) [INT-1400L]
10 to 99 | {CH2CO}-Y[NMeA]NP[Dap]L[Hyp]W[Dab][Trp(1-CH2CO)][NMeNle][NMeNle]LCG[Pra] (thioether N-14; not fully specified; printed as ClAc-Tyr-[N-Me]Ala-Asn-Pro-Dap-Leu-Hyp-Trp-Dab-Trp(1-carboxymethyl)-[N-Me]Nle-[N-Me]Nle-Leu-Cys-Gly-[(S)-propargylglycine]) [INT-1300W]
10 to 99 | {CH2CO}-Y[NMeA]NP[Dap]L[Hyp]W[Dab][Trp(1-CH2CO)][NMeNle][NMeNle]ECG[Pra]-OH (thioether N-14; SMILES C#CC[C@H](NC(=O)CNC(=O)[C@@H]1CSCC(=O)N[C@@H](Cc2ccc(O)cc2)C(=O)N(C)[C@@H](C)C(=O)N[C@@H](CC(N)=O)C(=O)N2CCC[C@H]2C(=O)N[C@@H](CN)C(=O)N[C@@H](CC(C)C)C(=O)N2C[C@H](O)C[C@H]2C(=O)N[C@@H](Cc2c[nH]c3ccccc23)C(=O)N[C@@H](CCN)C(=O)N[C@@H](Cc2cn(CC(=O)O)c3ccccc23)C(=O)N(C)[C@@H](CCCC)C(=O)N(C)[C@@H](CCCC)C(=O)N[C@@H](CCC(=O)O)C(=O)N1)C(=O)O) [INT-130AD]
10 to 99 | {CH2CO}-Y[NMeA]NP[Dap]L[Hyp]W[Dab][Trp(1-CH2CO)][NMeNle][NMeNle]LCGG[Pra]-OH (thioether N-14; SMILES C#CC[C@H](NC(=O)CNC(=O)CNC(=O)[C@@H]1CSCC(=O)N[C@@H](Cc2ccc(O)cc2)C(=O)N(C)[C@@H](C)C(=O)N[C@@H](CC(N)=O)C(=O)N2CCC[C@H]2C(=O)N[C@@H](CN)C(=O)N[C@@H](CC(C)C)C(=O)N2C[C@H](O)C[C@H]2C(=O)N[C@@H](Cc2c[nH]c3ccccc23)C(=O)N[C@@H](CCN)C(=O)N[C@@H](Cc2cn(CC(=O)O)c3ccccc23)C(=O)N(C)[C@@H](CCCC)C(=O)N(C)[C@@H](CCCC)C(=O)N[C@@H](CC(C)C)C(=O)N1)C(=O)O, also called Intermediate 130AA) [INT-130AA]
